Assay results from patent US20260176373A1 (BRIGHT BIOLOGICS, published 2026).
Blank lines part the entries; values can stand above or below the binder they belong to.

Tests used:
[1] = target: T1, human HER2 (human epidermal growth factor receptor 2) (human, UniProt P04626 23-1255); experiment: cell-based or functional assay
[2] = target: T1, human HER2 (human epidermal growth …); experiment: cell-based or functional assay; remark: listed apart in the source
[3] = target: T2, human HER2-Domain II-his protein (human, UniProt P04626 196-319); experiment: ELISA, plate coated with human HER2-Domain II-his
T2 construct: also called HER2 domain II fragment (Ser196-Asn319); not shown: his tag
Description: (§1) X axis is values of antibody concentration in nanomolar. Y axis is values of OD at 450 nm.
(§2) Binding of anti-HER2 VHH-Fc clones to different domains of human HER2 ECD was determined by ELISA binding assays using his-tagged HER2 domain fragments. Human HER2 domain IV fragment (Pro489-Cys630) was purchased from Sinobiological, domain II+III+IV fragment (Ser196-Cys630) & domain II fragment (Ser196-Asn319) were made.

[4] = target: T3, human HER2-Domain IV-his protein (human, UniProt P04626 489-630); experiment: ELISA, plate coated with human HER2-Domain IV-his
T3 construct: also called HER2 domain IV fragment (Pro489-Cys630); not shown: his tag
Description: as §1, §2

[5] = target: T1, human HER2 (human epidermal growth …); experiment: flow cytometry whole cell binding, CHO-h-HER2 stable cells
Description: (§3) Binding of bivalent anti-HER2 VHH-Fc clones to human HER2 stably transfected CHO cells (CHO-h-HER2 stable cells) was determined by flow cytometry whole cell binding (WCB) assays. Briefly, antibodies were incubated at different concentrations with CHO-h-HER2 stable cells (0.2×10⁶/ml) in 100 μl/well in 96-well plates in FACS buffer (PBS with 1.0% FBS) for 30 min. After washing, Alexa Fluor 488 conjugated anti-human IgG Fc secondary antibody (Alexa Fluor® 488 AffiniPure Goat Anti-Human IgG, Fcγ fragment specific, Jackson labs, 1:750 dilution) was added, and incubated for 30 min. After washing, Median Fluorescence Intensity (MFI) was measured using CytoFlex (Beckman Coulter) by gating live cell population with FITC channel. Whole cell binding of VHH-Fc clones to endogenously expressed HER2 in human cancer cells was also determined using N87 (Stomach cancer cell line) and SKBR3 (Breast cancer cell line) cells, both of which are cancer cells with high HER2 expressions.

[6] = target: T1, human HER2 (human epidermal growth …); experiment: flow cytometry whole cell binding, N87 cells (endogenous HER2)
Description: as §3

[7] = target: T1, human HER2 (human epidermal growth …); experiment: cell-based or functional assay; remark: listed apart in the source
[8] = target: T1, human HER2 (human epidermal growth …); experiment: flow cytometry whole cell binding, SKBR3 cells
[9] = target: T1, human HER2 (human epidermal growth …); experiment: flow cytometry whole cell binding, HCC202 cells
[10] = target: T1, human HER2 (human epidermal growth …); experiment: flow cytometry whole cell binding, CHO-h-HER2 stable cells; remark: listed apart in the source
[11] = target: T4, human TROP2 (Trophoblast cell-surface antigen 2) (human, UniProt P09758 27-323); experiment: cell-based or functional assay
T4 sequence (looked up): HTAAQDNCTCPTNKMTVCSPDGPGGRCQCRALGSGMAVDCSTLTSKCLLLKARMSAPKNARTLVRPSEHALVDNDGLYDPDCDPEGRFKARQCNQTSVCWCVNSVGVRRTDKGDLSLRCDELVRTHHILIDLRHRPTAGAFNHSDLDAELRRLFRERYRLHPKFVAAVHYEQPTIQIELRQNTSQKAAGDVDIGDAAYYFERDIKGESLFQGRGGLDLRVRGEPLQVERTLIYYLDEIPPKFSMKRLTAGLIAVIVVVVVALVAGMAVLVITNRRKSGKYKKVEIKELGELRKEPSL

[12] = target: T4, human TROP2 (Trophoblast cell-surface …); experiment: flow cytometry whole cell binding, SKBR3 cells
[13] = target: T4, human TROP2 (Trophoblast cell-surface …); experiment: flow cytometry whole cell binding, HCC202 cells
[14] = target: T4, human TROP2 (Trophoblast cell-surface …); experiment: flow cytometry whole cell binding, NCI-H441 cells
[15] = target: T5, human TROP2 (Trophoblast cell-surface antigen 2) (human, UniProt P09758 27-323); experiment: flow cytometry whole cell binding, SKBR3
T5 chain: T4 sequence (looked up)

[16] = target: T4, human TROP2 (Trophoblast cell-surface …); experiment: flow cytometry whole cell binding, h-TROP2 stably transfected CHO cells
Description: Binding of bivalent anti-TROP2 VHH-Fc clones to human TROP2 in human TROP2 stably transfected CHO cells (CHO-h-TROP2 stable cells) were determined by flow cytometry whole cell binding (WCB) assays. Briefly, antibodies were incubated at different concentrations with CHO-h-TROP2 stable cells (0.2×10⁶/ml) in 96-well plates (100 μl/well) in FACS buffer for 30 min. After washing, Alexa Fluor 488 conjugated anti-human IgG Fc secondary antibody was added, and incubated for 30 min. After washing, MFI was measured using CytoFlex by gating live cell population with FITC channel. EC50 of binding was calculated using GraphPad Prism7.0.

mouse TROP2 = target: T6, mouse TROP2 (mouse, UniProt Q8BGV3 25-317); experiment: flow cytometry whole cell binding, m-TROP2 stably transfected 293T cells
T6 construct: whole, on cells; also called m-TROP2
T6 sequence (looked up): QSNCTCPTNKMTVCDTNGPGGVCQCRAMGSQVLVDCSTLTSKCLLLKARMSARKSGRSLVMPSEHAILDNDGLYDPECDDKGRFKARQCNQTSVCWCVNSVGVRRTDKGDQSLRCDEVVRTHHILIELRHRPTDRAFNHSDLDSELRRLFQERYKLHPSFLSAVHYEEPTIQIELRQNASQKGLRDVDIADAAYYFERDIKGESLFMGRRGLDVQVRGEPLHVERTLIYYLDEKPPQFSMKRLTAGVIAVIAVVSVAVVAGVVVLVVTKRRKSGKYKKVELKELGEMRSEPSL

B2: 11D5_Fc (antibody, V domains shown)
VH: QVQLVESGGGVVQPGRSLRLSCAASGSTFSSLAMHWVRQAPGKERELVAAISYSGGYTYYADSVKGRFTISRDNSKNTLYLQMNSLRAEDTAVYYCAASSIFIGAYDYWGQGTLVTVSS
notes: monospecific bivalent VHH-Fc with C220S mutation in the hinge region; also called monospecific anti-HER2 (11D5)
- IC50, nM, Killing of HCC202 cells by 2nd Ab-MMAE [7]: 0.18 nM
- IC50, nM, Killing of SKBR3 cells by 2nd Ab-MMAE [7]: 0.134 nM
- EC50 [8]: 2.59 nM
- EC50 [9]: 3.25 nM
- EC50 [10]: 0.684 nM

B3: 1H11-hv8_Fc (antibody, V domains shown)
VH: EVQLVESGGGLVQPGGSLRLSCAASGGTFSRYIMGWFRQAPGKEREFVSTISGSGGSTYYADSVKGRFTISRDNSKNTLYLQMNSLRAEDTAVYYCASTFYSTTYVAQRDARDYAYWGQGTQVTVSS
notes: monospecific bivalent VHH-Fc with C220S mutation in the hinge region; also called monospecific anti-TROP2 (1H11-hv8)
- IC50, nM, Killing of HCC202 cells by 2nd Ab-MMAE [11]: 0.2 nM
- IC50, nM, Killing of NCI-H441 cells by 2nd Ab-MMAE [11]: 0.15 nM
- IC50, nM, Killing of SKBR3 cells by 2nd Ab-MMAE [11]: 0.48 nM
- EC50 [12]: 141 nM
- EC50 [13]: 3.5 nM
- EC50 [14]: 1.6 nM

Now from value to binder, other results behind:

- IC50 (nM) in AU-565 cells, anti-proliferation [2]: 0.84 nM
- binding result [3]: no binding
- binding result [4]: no binding
- EC50 [5]: 2.09 nM
- EC50 [6]: 3.14 nM
B1: anti-HER2 VHH-Fc clone 11D5 (bivalent VHH-Fc of Example 2) (antibody, V domains shown)
VH: B2 VH
notes: not shown: human IgG1 Fc region: hinge region and constant domains CH2 and CH3
- IC50 (nM) in AU-565 cells, killing in the presence of PBMCs [1]: 0.38 nM
- IC50 (nM) in SKBR3 cells, killing in the presence of PBMCs [1]: 0.29 nM

- EC50 [15]: 1.76 nM
- EC50 [16]: 1.46 nM
- EC50 (mouse TROP2): 760 nM
B4: anti-TROP2 VHH-Fc clone Alpaca 3H9 (antibody, human IgG1, V domains shown)
VH: LVQLVESGGGLVQAGGSQRLSCAVSGRAFAYYAMGWFRQAPGKEREFVAAIAGSGDSTYYADSVKGRFTISRDYAKNTNYLQMNSLKPEDTAVYYCAAAGGTFYSGTAVATRSSQYDYWGQGTQVTVSS
notes: domain: hinge region and constant domains (CH2 and CH3); bivalent VHH-Fc, human IgG1 Fc; also called 3H9-Fc
